{"source": "paper PMC9352680", "about": "“A comprehensive thermodynamic model for RNA binding by the Saccharomyces cerevisiae Pumilio protein PUF4”", "data": [{"biological_target": "T1, PUF4 RNA-binding domain (Saccharomyces cerevisiae, UniProt P25339 537-888)", "T1 sequence": "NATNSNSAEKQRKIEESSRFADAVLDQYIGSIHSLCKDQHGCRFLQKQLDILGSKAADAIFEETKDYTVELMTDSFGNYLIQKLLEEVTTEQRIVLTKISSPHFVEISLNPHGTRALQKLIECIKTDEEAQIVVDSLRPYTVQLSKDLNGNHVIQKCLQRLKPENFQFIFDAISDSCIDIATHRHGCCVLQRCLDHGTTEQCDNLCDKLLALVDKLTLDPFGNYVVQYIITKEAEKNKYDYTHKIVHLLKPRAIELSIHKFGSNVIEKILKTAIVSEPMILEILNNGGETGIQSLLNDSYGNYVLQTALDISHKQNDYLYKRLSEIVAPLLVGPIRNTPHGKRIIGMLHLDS", "experiment": "Mg; RNA-MaP; 20 mM Na-HEPES pH 7.4, 30 mM KOAc, 0.75 mM MgCl2, 0.1% Tween-20, 5% glycerol, 0.1 mg/mL BSA, 2 mM DTT; 25 C; 0.0125-409.6 nM protein", "conditions": "tags: N-His6-TEV cleaved; C-SNAP kept, Cy3B-labelled; label: tethered on chip by stalled RNA polymerase", "units": {"Kd": "nM"}, "values": [{"binder": "ACAAACAUUAUAUAUUACUACAAAC (ssRNA)", "note": "[Id_ii_S3_P4E.3_K4.2_C4.2_[C-2A]_H4.2_A4.1_F4.1_T4.2_[G10C]]", "Kd": 21.1}, {"binder": "ACAAACACUAUAUAUUAAAACAAAC (ssRNA)", "note": "[Id_ii_S3_P4E.3_K4.2_C4.2_[C-2A]_[T-1C]_H4.2_A4.1_F4.1_T4.2_[G10A]_[T11A]]", "Kd": 34}, {"binder": "ACAAACCUUAUAUAUUAACACAAAC (ssRNA)", "note": "[Id_ii_S3_P4E.3_K4.2_C4.2_H4.2_A4.1_F4.1_T4.2_[G10A]_[T11C]]", "Kd": 21.6}, {"binder": "ACAAACACUAUAUAUUAUCACAAAC (ssRNA)", "note": "[Id_ii_S3_P4E.3_K4.2_C4.2_[C-2A]_[T-1C]_H4.2_A4.1_F4.1_T4.2_[G10T]_[T11C]]", "Kd": 17.7}, {"binder": "ACAAACGCACACUAUUAGAACAAAC (ssRNA)", "note": "[Id_ii_S3_P4E.4_K4.3_C4.2_[C-2G]_[T-1C]_H4.3_A4.1_F4.1_T4.2_[T11A]]", "Kd": "> 2300"}, {"binder": "ACAAACUCACACUAUUAAGACAAAC (ssRNA)", "note": "[Id_ii_S3_P4E.4_K4.3_C4.2_[C-2T]_[T-1C]_H4.3_A4.1_F4.1_T4.2_[G10A]_[T11G]]", "Kd": "> 2300"}, {"binder": "ACAAACGCACACUAUUACUACAAAC (ssRNA)", "note": "[Id_ii_S3_P4E.4_K4.3_C4.2_[C-2G]_[T-1C]_H4.3_A4.1_F4.1_T4.2_[G10C]]", "Kd": "> 2300"}, {"binder": "UCUCUUUGUAUCAUUUUCUCUU (ssRNA)", "note": "[Ib_S1_P5E.1_K5.1_C5.1_H5.1_A5.1_[T6C]_F5.1_[A10T]_T5.1]", "Kd": 7.85}, {"binder": "UCUCUUUGUAUUCUUGUCUCUU (ssRNA)", "note": "[Ib_S1_P5E.1_K5.1_C5.1_H5.1_A5.1_[A7C]_F5.1_[A10G]_T5.1]", "Kd": 20.4}, {"binder": "ACAAACACUAUAUAUUAUGACAAAC (ssRNA)", "note": "[Id_ii_S3_P4E.3_K4.2_C4.2_[C-2A]_[T-1C]_H4.2_A4.1_F4.1_T4.2_[G10T]_[T11G]]", "Kd": 16.6}, {"binder": "ACAAACCCUAUAUAUUACGACAAAC (ssRNA)", "note": "[Id_ii_S3_P4E.3_K4.2_C4.2_[T-1C]_H4.2_A4.1_F4.1_T4.2_[G10C]_[T11G]]", "Kd": 16.6}, {"binder": "ACAAACACUAUAUAUUAACACAAAC (ssRNA)", "note": "[Id_ii_S3_P4E.3_K4.2_C4.2_[C-2A]_[T-1C]_H4.2_A4.1_F4.1_T4.2_[G10A]_[T11C]]", "Kd": 29.6}, {"binder": "ACAAACUUACACUAUUAGAACAAAC (ssRNA)", "note": "[Id_ii_S3_P4E.4_K4.3_C4.2_[C-2T]_H4.3_A4.1_F4.1_T4.2_[T11A]]", "Kd": "> 2300"}, {"binder": "ACAAACUAACACUAUUACGACAAAC (ssRNA)", "note": "[Id_ii_S3_P4E.4_K4.3_C4.2_[C-2T]_[T-1A]_H4.3_A4.1_F4.1_T4.2_[G10C]_[T11G]]", "Kd": "> 2300"}, {"binder": "ACAAACACUAUAUAUUACUACAAAC (ssRNA)", "note": "[Id_ii_S3_P4E.3_K4.2_C4.2_[C-2A]_[T-1C]_H4.2_A4.1_F4.1_T4.2_[G10C]]", "Kd": 17.6}, {"binder": "ACAAACUUUAUAUAUUAACACAAAC (ssRNA)", "note": "[Id_ii_S3_P4E.3_K4.2_C4.2_[C-2T]_H4.2_A4.1_F4.1_T4.2_[G10A]_[T11C]]", "Kd": 29.5}, {"binder": "ACAAACAGACACUAUUAGAACAAAC (ssRNA)", "note": "[Id_ii_S3_P4E.4_K4.3_C4.2_[C-2A]_[T-1G]_H4.3_A4.1_F4.1_T4.2_[T11A]]", "Kd": "> 2300"}, {"binder": "ACAAACUGACACUAUUACGACAAAC (ssRNA)", "note": "[Id_ii_S3_P4E.4_K4.3_C4.2_[C-2T]_[T-1G]_H4.3_A4.1_F4.1_T4.2_[G10C]_[T11G]]", "Kd": "> 2300"}, {"binder": "ACAAACACACACUAUUAGCACAAAC (ssRNA)", "note": "[Id_ii_S3_P4E.4_K4.3_C4.2_[C-2A]_[T-1C]_H4.3_A4.1_F4.1_T4.2_[T11C]]", "Kd": "> 2300"}, {"binder": "ACAAACAUUAUAUAUUACAACAAAC (ssRNA)", "note": "[Id_ii_S3_P4E.3_K4.2_C4.2_[C-2A]_H4.2_A4.1_F4.1_T4.2_[G10C]_[T11A]]", "Kd": 27.7}, {"binder": "ACAAACUCACACUAUUAAAACAAAC (ssRNA)", "note": "[Id_ii_S3_P4E.4_K4.3_C4.2_[C-2T]_[T-1C]_H4.3_A4.1_F4.1_T4.2_[G10A]_[T11A]]", "Kd": "> 2300"}, {"binder": "ACAAACUCACACUAUUAGUACAAAC (ssRNA)", "note": "[Id_ii_S3_P4E.4_K4.3_C4.2_[C-2T]_[T-1C]_H4.3_A4.1_F4.1_T4.2]", "Kd": "> 2300"}, {"binder": "UCUCUUUGUACUAUUAUCUCUU (ssRNA)", "note": "[Ie_S1_P4E.1_K4.1_C4.1_H4.1_[+4C]_A4.1_F4.1_T4.1]", "Kd": 4.49}, {"binder": "UCUCUUUGUAUUUUUGUCUCUU (ssRNA)", "note": "[Ib_S1_P5E.1_K5.1_C5.1_H5.1_A5.1_[A7T]_F5.1_[A10G]_T5.1]", "Kd": 13.7}, {"binder": "ACAAACCUUAUAUAUUAGUACAAAC (ssRNA)", "note": "[If_S3_P4E.3_K4.2_C4.2_H4.2_A4.1_F4.1_T4.2]", "Kd": 3.71}, {"binder": "ACAAACUGACACUAUUAUGACAAAC (ssRNA)", "note": "[Id_ii_S3_P4E.4_K4.3_C4.2_[C-2T]_[T-1G]_H4.3_A4.1_F4.1_T4.2_[G10T]_[T11G]]", "Kd": "> 2300"}, {"binder": "ACAAACUUACACUAUUAUAACAAAC (ssRNA)", "note": "[Id_ii_S3_P4E.4_K4.3_C4.2_[C-2T]_H4.3_A4.1_F4.1_T4.2_[G10T]_[T11A]]", "Kd": 1640}, {"binder": "ACAAACUUACACUAUUAAAACAAAC (ssRNA)", "note": "[Id_ii_S3_P4E.4_K4.3_C4.2_[C-2T]_H4.3_A4.1_F4.1_T4.2_[G10A]_[T11A]]", "Kd": "> 2300"}, {"binder": "ACAAACACACACUAUUAACACAAAC (ssRNA)", "note": "[Id_ii_S3_P4E.4_K4.3_C4.2_[C-2A]_[T-1C]_H4.3_A4.1_F4.1_T4.2_[G10A]_[T11C]]", "Kd": "> 2300"}, {"binder": "ACAAACAGUAUAUAUUAUCACAAAC (ssRNA)", "note": "[Id_ii_S3_P4E.3_K4.2_C4.2_[C-2A]_[T-1G]_H4.2_A4.1_F4.1_T4.2_[G10T]_[T11C]]", "Kd": 25.5}, {"binder": "ACAAACACUAUAUAUUAUAACAAAC (ssRNA)", "note": "[Id_ii_S3_P4E.3_K4.2_C4.2_[C-2A]_[T-1C]_H4.2_A4.1_F4.1_T4.2_[G10T]_[T11A]]", "Kd": 20.5}]}]}
